Source: US20150125458A1 (Janssen / Centocor, published 2015)
Numbering of substitutions follows the chain as printed.

T1: human CCL17 (human, UniProt Q92583 24-94)
T1 construct: Biotinylated in the ELISA screens; also called huCCL17; Bt-huCCL17
T1 sequence: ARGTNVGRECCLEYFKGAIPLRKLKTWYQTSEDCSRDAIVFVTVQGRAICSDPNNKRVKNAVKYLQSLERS

T2: cyno CCL17 (Macaca fascicularis (cyno), UniProt Q8HYP9 24-94 (rhesus entry))
T2 construct: Biotinylated in the ELISA screens; also called cCCL17; Macaca fascicularis CCL17
T2 sequence: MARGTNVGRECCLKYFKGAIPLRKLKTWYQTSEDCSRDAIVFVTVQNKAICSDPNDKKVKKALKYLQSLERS

B1: C17F319 Fab variant W100a to F (Fab, V domains shown)
VH: EVQLVQSGAEVKKPGESLKISCKGSGYSFTSYWIGWVRQMPGKGLEWMGIIDPSDSDTRYSPSFQGQVTISADKSISTAYLQWSSLKASDTAMYYCARVGPADVFDSFDYWGQGTLVTVSS
VL: DIVMTQSPDSLAVSLGERATINCKSSQSVLLSPWNSNQLAWYQQKPGQPPKLLIYGASTRESGVPDRFSGSGSGTDFTLTISSLQAEDVAVYYCQQYYLIPSTFGQGTKVEIK
notes: also called W→F
B2: C17F319 Fab variant W100a to I (Fab, V domains shown)
VH: B1 VH with F105I
VL: B1 VL
notes: also called W→I
B3: C17F319 Fab variant W100a to Y (Fab, V domains shown)
VH: B1 VH with F105Y
VL: B1 VL
notes: also called W→Y
B4: C17F319 Fab variant W100a to T (Fab, V domains shown)
VH: B1 VH with F105T
VL: B1 VL
notes: also called W→T
B5: C17F319 Fab variant W100a to R (Fab, V domains shown)
VH: B1 VH with F105R
VL: B1 VL
notes: also called W→R

Target: T1, human CCL17
Assay: ranking Fab ELISA with bt-human and bt-cyno CCL17

binding result	Binder
binds	B1
binds	B2
binds	B3

Target: T2, cyno CCL17
Assay: ranking Fab ELISA with bt-human and bt-cyno CCL17

binding result	Binder
binds	B1
binds	B4
binds	B5
binds	B2
binds	B3
